Results as given in PMC4725248, “Yeast mitochondrial HMG proteins”.

Tests used:
[1] = biological target: T1, CpGcf1p (CpGcf1noMP) (Candida parapsilosis CBS604) (UniProt G8BDQ3); assay: EMSA; settings: EMSA: 20 mM Tris/HCl pH 7.5, 1 mM EDTA, 50 mM NaCl, 100 ug/ml BSA, 3 nM DNA, 10 min 30 C, gel 0.5x TBE 4 C, EM: 20 mM HEPES pH 7.5, 1 mM EDTA, room …
T1 sequence: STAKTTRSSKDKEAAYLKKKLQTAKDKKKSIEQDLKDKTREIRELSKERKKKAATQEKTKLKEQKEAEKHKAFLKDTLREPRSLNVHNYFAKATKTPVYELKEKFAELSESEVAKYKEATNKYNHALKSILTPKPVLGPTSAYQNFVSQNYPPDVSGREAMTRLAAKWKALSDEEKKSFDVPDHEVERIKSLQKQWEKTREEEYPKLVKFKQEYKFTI

[2] = biological target: T2, ScAbf2p (ScAbf2noMP) (Saccharomyces cerevisiae) (UniProt Q02486); assay: EMSA; settings: EMSA: 20 mM Tris/HCl pH 7.5, 1 mM EDTA, 50 mM NaCl, 100 ug/ml BSA, 3 nM DNA, 10 min 30 C, gel 0.5x TBE 4 C, EM: 20 mM HEPES pH 7.5, 1 mM EDTA, room …
T2 sequence: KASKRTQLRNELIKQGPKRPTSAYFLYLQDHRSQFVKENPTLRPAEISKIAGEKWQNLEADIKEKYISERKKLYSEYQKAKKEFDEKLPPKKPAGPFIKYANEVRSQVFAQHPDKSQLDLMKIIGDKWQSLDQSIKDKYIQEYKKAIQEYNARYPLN

CpGcf1p (CpGcf1noMP) [3] = biological target: T3, CpGcf1p (CpGcf1noMP) (Candida parapsilosis CBS604, UniProt G8BDQ3 34-251); assay: EMSA; settings: 120 nM protein, EMSA: 20 mM Tris/HCl pH 7.5, 1 mM EDTA, 50 mM NaCl, 100 ug/ml BSA, 3 nM DNA, 10 min 30 C, gel 0.5x TBE 4 C, EM: 20 mM HEPES pH 7.5, 1 mM EDTA, room …
T3 sequence: T1 sequence

[4] = tested on: YlMhb1p (YlMhb1noMP) (Yarrowia lipolytica); assay: EMSA; settings: 50% shift, 3 nM probe, EMSA: 20 mM Tris/HCl pH 7.5, 1 mM EDTA, 50 mM NaCl, 100 ug/ml BSA, 3 nM DNA, 10 min 30 C, gel 0.5x TBE 4 C, EM: 20 mM HEPES pH 7.5, 1 mM EDTA, room …
ScAbf2p (ScAbf2noMP) [5] = biological target: T4, ScAbf2p (ScAbf2noMP) (Saccharomyces cerevisiae, UniProt Q02486 27-183); assay: EMSA; settings: 50% shift, 3 nM probe, EMSA: 20 mM Tris/HCl pH 7.5, 1 mM EDTA, 50 mM NaCl, 100 ug/ml BSA, 3 nM DNA, 10 min 30 C, gel 0.5x TBE 4 C, EM: 20 mM HEPES pH 7.5, 1 mM EDTA, room …
T4 sequence: T2 sequence

CpGcf1p (CpGcf1noMP) [6] = biological target: T3, CpGcf1p (CpGcf1noMP); assay: EMSA; EMSA: 20 mM Tris/HCl pH 7.5, 1 mM EDTA, 50 mM NaCl, 100 ug/ml BSA, 3 nM DNA, 10 min 30 C, gel 0.5x TBE 4 C; EM: 20 mM HEPES pH 7.5, 1 mM EDTA, 50 mM NaCl, room; settings: protein: recombinant, tags: GST removed with PreScission protease (pGEX-6P-2), label: 32P, blunt
ScAbf2p (ScAbf2noMP) [7] = biological target: T4, ScAbf2p (ScAbf2noMP); assay: as above; settings: protein: recombinant; tags: GST removed with PreScission protease (pGEX-6P-2); label: 32P, 5' end of S6; blunt
ScAbf2p (ScAbf2noMP) [8] = biological target: T4, ScAbf2p (ScAbf2noMP); assay: EMSA; almost quantitative shift; EMSA: 20 mM Tris/HCl pH 7.5, 1 mM EDTA, 50 mM NaCl, 100 ug/ml BSA, 3 nM DNA, 10 min 30 C, gel 0.5x TBE 4 C; EM: 20 mM HEPES pH 7.5, 1 mM EDTA, 50 mM NaCl, room; settings: protein: recombinant; tags: GST removed with PreScission protease (pGEX-6P-2); label: 32P, 5' end of S8; blunt

Molecule: ACACCATTAATTAAAGCTGCGAATACGATAGCAATACCAATACCTGCTCC (double strand) [50 bp atp9 dsDNA]
- binding [1]: binds
- binding [2]: binds

Molecule: Holliday junction (HJ)
- binding signal (fold higher than 3' Flap) (CpGcf1p (CpGcf1noMP) [3]): 8

Molecule: fluorescent dsDNA
- K half [4]: 120 nM
- K half (ScAbf2p (ScAbf2noMP) [5]): 30 nM

B1: 15 bp atp9 dsDNA (dsDNA)
DNA 1: GGAGCAGGTATTGGT
DNA 2: ACCAATACCTGCTCC
- binding result (CpGcf1p (CpGcf1noMP) [6]; 5' end of S6): no binding
- binding result (ScAbf2p (ScAbf2noMP) [7]): no binding

B2: 25 bp atp9 dsDNA (dsDNA)
DNA 1: GGAGCAGGTATTGGTATTGCTATCG
DNA 2: CGATAGCAATACCAATACCTGCTCC
- binding result (ScAbf2p (ScAbf2noMP) [8]): binds
- binding result (CpGcf1p (CpGcf1noMP) [6]; 5' end of S8): no binding
